T1: αvβ6 integrin (purified), P06756
T1 chain 1: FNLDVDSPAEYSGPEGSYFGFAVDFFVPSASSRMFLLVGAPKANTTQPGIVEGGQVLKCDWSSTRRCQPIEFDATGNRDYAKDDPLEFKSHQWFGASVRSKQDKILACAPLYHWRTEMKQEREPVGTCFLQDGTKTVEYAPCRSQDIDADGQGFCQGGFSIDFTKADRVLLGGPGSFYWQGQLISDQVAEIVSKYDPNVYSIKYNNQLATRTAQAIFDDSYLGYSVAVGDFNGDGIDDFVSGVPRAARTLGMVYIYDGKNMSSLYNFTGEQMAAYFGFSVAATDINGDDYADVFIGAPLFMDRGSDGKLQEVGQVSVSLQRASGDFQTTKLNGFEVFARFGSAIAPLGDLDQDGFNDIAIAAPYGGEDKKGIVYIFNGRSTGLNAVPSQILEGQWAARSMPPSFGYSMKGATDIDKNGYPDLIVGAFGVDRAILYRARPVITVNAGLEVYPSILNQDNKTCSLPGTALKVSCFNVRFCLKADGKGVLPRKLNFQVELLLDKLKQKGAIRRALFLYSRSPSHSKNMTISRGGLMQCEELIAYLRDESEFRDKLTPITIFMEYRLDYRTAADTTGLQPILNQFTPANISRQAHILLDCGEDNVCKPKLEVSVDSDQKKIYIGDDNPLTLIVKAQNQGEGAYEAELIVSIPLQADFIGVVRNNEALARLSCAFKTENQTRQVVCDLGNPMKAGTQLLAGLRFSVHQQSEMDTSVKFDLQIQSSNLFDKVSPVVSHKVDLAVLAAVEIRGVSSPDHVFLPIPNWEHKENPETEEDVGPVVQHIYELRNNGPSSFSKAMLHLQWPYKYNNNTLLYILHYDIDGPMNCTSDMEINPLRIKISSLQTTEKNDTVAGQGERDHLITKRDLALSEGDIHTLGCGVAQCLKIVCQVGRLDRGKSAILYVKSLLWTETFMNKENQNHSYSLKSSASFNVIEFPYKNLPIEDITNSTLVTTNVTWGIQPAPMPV
T1 chain 2: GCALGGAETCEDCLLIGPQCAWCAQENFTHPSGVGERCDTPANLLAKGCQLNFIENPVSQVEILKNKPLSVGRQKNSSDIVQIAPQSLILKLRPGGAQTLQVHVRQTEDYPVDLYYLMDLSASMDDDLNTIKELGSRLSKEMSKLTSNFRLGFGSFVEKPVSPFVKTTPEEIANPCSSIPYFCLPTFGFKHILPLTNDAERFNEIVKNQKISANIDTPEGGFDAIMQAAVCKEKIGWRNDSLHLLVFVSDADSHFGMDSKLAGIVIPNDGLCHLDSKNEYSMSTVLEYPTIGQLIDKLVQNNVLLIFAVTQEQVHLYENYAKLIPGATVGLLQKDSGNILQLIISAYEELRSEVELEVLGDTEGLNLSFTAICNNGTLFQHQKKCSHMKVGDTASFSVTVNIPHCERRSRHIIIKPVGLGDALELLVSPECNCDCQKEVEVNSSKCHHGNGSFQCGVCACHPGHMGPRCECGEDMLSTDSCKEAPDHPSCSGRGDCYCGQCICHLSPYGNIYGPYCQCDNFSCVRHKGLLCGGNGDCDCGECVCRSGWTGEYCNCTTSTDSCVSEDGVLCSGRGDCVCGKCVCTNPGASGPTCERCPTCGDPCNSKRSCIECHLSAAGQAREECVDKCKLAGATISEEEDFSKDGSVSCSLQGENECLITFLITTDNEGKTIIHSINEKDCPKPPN

T2: αvβ8 integrin (purified), P06756
T2 chain 1: T1 chain 1
T2 chain 2: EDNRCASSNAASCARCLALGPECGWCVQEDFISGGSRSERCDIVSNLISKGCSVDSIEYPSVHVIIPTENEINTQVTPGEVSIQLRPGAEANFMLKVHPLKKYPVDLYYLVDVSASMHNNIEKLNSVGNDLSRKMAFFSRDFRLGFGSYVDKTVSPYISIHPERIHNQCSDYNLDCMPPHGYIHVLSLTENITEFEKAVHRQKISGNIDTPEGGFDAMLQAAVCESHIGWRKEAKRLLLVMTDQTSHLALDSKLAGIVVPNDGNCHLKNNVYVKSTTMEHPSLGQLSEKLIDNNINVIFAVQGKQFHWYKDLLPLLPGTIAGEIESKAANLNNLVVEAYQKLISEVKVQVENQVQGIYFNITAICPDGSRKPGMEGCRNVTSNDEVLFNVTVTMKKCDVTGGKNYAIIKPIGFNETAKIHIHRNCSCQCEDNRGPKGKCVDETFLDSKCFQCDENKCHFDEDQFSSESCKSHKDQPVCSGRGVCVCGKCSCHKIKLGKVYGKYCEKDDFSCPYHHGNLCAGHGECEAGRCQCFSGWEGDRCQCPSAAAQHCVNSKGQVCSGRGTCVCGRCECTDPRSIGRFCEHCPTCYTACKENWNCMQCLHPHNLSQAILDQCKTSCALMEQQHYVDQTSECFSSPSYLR

T3: αvβ6 integrin on DX3puroβ6 (αvβ6+) cells (human), P06756
T3 chain 1: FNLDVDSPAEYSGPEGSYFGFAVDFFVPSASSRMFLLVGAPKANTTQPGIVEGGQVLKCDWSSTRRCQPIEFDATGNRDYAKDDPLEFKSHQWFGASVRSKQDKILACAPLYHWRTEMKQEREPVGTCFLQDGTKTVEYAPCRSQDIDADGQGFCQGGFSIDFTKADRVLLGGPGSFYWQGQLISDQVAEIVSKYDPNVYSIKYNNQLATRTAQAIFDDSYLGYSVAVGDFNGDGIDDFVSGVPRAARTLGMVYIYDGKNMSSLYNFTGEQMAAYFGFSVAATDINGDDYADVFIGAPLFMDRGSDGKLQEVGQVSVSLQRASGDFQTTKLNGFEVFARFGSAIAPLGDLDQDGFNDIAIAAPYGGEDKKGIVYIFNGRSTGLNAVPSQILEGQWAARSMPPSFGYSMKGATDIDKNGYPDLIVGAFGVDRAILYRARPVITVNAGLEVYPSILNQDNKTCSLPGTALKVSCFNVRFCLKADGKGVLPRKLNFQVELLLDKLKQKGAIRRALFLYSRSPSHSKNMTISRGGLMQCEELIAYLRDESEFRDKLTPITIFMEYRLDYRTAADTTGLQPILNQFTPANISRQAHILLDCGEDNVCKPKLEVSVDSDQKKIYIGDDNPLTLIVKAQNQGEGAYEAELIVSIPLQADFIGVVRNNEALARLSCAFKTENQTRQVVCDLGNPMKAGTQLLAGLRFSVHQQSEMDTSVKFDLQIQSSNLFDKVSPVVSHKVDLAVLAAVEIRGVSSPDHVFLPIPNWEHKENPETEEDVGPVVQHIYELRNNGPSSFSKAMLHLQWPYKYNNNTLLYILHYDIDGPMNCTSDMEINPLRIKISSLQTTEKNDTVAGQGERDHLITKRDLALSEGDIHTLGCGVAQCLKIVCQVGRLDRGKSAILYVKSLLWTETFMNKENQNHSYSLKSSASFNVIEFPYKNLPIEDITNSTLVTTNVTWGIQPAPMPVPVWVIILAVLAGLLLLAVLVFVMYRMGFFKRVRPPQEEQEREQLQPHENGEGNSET
T3 chain 2: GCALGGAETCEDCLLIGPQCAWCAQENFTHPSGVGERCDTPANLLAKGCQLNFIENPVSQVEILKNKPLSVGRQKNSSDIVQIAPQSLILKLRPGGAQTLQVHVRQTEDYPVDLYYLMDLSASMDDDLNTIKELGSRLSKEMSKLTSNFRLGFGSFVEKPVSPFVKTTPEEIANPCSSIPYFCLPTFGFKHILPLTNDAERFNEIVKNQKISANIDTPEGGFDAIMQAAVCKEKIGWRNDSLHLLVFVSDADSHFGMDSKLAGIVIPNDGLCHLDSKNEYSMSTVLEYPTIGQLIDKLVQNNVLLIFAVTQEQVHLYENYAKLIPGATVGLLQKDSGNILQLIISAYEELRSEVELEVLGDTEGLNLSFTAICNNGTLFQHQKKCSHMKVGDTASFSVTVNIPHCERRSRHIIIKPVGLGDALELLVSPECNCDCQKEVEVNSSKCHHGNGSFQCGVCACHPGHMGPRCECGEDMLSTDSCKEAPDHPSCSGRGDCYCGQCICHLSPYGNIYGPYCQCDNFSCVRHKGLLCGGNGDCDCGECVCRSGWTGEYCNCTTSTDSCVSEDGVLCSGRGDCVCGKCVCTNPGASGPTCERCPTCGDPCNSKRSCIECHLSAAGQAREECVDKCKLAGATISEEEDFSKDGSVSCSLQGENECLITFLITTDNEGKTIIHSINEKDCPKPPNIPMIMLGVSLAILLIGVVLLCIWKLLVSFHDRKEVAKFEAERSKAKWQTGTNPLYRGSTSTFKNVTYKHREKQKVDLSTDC


What was measured:
[1] = target: T1, αvβ6 integrin (purified), P06756; test: competitive ELISA vs BtLAP
[2] = target: T2, αvβ8 integrin (purified), P06756; test: competitive ELISA vs BtLAP
[3] = target: T3, αvβ6 integrin on DX3puroβ6 (αvβ6+) …; test: 18F peptide cell binding, αvβ6+ over αvβ6- cells
[4] = target: T3, αvβ6 integrin on DX3puroβ6 (αvβ6+) …; test: 18F peptide binding to DX3puroβ6 (αvβ6+) cells, 1 h, gamma counting

| Binder | IC50 [1] | IC50 [2] | DX3puroβ6 (αvβ6+)/DX3puro (αvβ6-) selectivity ratio [3] | % binding to cells [4] |
| --- | --- | --- | --- | --- |
| RGDLADLRK (modifications not checked) [P3, …(FB)] | 420 nM | 200 nM | 1.4 | 10.8% |
| GRGDLGRL (modifications not checked) [SFLAP3-8mer, FB-GRGDLGRL] | 89 nM | – | 1.4 | – |
| RGDLQVLA (modifications not checked) [A20-8mer, FB-RGDLQVLA] | – | – | 7.8 | – |
| RSDLTPLF (modifications not checked) [KL3, FB-RSDLTPLF] | 1700 nM | – | 0.9 | 0.7% |
| RGDLQVLAQKVART (modifications not checked) [A20-14mer, FB-…] | – | – | 8.4 | – |
| VGDLTYLKK (modifications not checked) [P1, …(FB)] | 450 nM | 5300 nM | 1.1 | 12.8% |
| RTDLDSLRT (modifications not checked) [RTD-9mer, FB-…] | 22 nM | – | 1.7 | – |
